This is an account of results in patent US6627739.

One assay addresses T1, β-secretase 46-452 (human, UniProt P56817 46-452).
T1 construct: C-terminally truncated form lacking the transmembrane region
As to the kind of experiment: binding to peptide-Sepharose affinity matrix. The procedure:
The same fractions run under non-reducing conditions (FIG. 6B) provide evidence for disulfide cross-linked oligomers. When the anion exchange pool fractions 18–21 (see FIG. 6B) were treated with dithiothreitol (DTT) and re-chromatographed on a Mini Q column, then subjected to SDS-PAGE under non-reducing conditions, a single band running at about 70 kilodaltons was observed.
All manipulations were carried out at room temperature. 12.5 ml of 80% slurry of NHS-Sepharose (i.e. 10 ml packed volume; Pharmnacia, Piscataway, N.J.) was poured into a Bio-Rad EconoColumn (BioRad, Richmond, Calif.) and washed with 165 ml of ice-cold 1.0 mM HCl. When the bed was fully drained, the bottom of the column was closed off, and 5.0 ml of 7.0 mg/ml P10-P4'sta(D→V) peptide (dissolved in 0.1 M HEPES, pH 8.0) was added. The column was capped and incubated with rotation for 24 hours. After incubation, the column was allowed to drain, then washed with 8 ml of 1.0 M ethanolamine, pH 8.2. An additional 10 ml of the ethanolamine solution was added, and the column was again capped and incubated overnight with rotation. […]

Assay [1] has as its target T2, recombinant full-length human β-secretase (1-501) expressed from pCEK clone 27 / pCFβA2 in 293T or Cos A2 … (human, UniProt P56817 46-501).
T2 construct: From 293T cells the N-terminus was mainly residue 46, with minor forms at 22 and 63; From Cos A2 cells it was 46 and 58; also called p501 β-secretase; full length clone 27
As to the kind of experiment: affinity chromatography on peptide-Sepharose, extracts of transfected 293T and COS A2 cells. The procedure:
The cell pellet was resuspended by homogenizing for 30 seconds using a handheld homogenizer (0.5 ml/pellet of approximately […] in extraction buffer consisting of 20 mM TRIS buffer, pH 7.5, 2 mM EDTA, 0.2% Triton X-100, plus protease inhibitors: 5 µg/ml E-64, 10 µg/ml pepstatin, 1 mM PMSF), centrifuged as maximum speed in a microfuge (40 minutes at 4 degrees C.). Pellets were suspended in original volume of extraction buffer, then stirred at 1 hour at 4 degrees C. with rotation, and centrifuted again in a microfuge at maximum speed for 40 minutes. The resulting supernatant was saved as the "extract." The extract was then diluted with 20 mM sodium acetate, pH 5.0,2 mM EDTA and 0.2% Triton X-100 (SP buffer A), and 5M NaCl was added to a final concentration of 60 mM NaCl. The pH of the solution was then adjusted to pH 5.0 with glacial acetic acid diluted 1:10 in water. Aliquots were saved ("SP load"). The SP load was passed through a 1 ml SP HiTrap column which was pre-washed with 5 ml SP buffer A, 5 ml SP buffer B (SP buffer A with 1 M NaCl) and 10 ml SP buffer A. An additional 2 ml of 5% SP buffer B was passed through the column to displace any remaining sample from the column. The pH of the SP flow-through was adjusted to pH 4.5 with 10× diluted acetic acid. This flow-through was then applied to a P10-P4'staD→V-Sepharose Affinity column, as described below. […]

[ ]: non-standard residue; d: D form. Sta = CC(C)C[C@H](N)[C@@H](O)CC(=O)O

T1 sequence (P56817 46-452 limits assumed): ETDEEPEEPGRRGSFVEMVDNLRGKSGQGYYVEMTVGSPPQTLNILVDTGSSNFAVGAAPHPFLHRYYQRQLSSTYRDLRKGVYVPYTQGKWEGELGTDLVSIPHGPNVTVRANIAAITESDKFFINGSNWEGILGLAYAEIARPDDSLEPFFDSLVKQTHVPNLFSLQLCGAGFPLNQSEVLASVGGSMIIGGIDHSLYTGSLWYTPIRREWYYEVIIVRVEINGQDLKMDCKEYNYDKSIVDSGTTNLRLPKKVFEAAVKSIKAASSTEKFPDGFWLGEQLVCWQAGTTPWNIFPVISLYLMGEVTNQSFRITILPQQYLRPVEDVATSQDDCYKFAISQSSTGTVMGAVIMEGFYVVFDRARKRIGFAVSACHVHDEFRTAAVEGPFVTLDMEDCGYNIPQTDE
T2 sequence (P56817 46-501 limits assumed): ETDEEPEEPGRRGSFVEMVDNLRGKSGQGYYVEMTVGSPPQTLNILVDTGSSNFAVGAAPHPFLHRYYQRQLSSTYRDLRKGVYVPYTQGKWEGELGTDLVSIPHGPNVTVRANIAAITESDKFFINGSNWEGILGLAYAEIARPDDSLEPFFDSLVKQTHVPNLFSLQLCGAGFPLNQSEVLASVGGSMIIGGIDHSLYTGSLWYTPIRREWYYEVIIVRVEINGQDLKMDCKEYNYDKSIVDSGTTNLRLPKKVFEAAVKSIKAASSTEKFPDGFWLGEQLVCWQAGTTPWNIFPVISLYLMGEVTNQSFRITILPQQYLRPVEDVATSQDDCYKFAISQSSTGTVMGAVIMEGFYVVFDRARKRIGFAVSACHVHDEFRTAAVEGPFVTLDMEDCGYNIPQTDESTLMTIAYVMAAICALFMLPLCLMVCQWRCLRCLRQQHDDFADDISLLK

For the molecule H-KTEEISEVN[Sta]VAEF-OH (also called P10-P4′(statine)D→V) [P10-P4′staD→V (NH2-KTEEISEVN[sta]VAEF-CO2H)], the binding result (with β-secretase 46-452; in assay [1]) was “binds” in each case.
